# Target: the molecule itself
# Assay: Western blot of Golgi membrane fraction (dimer band); Rab6a Western blot of the Golgi fraction (sucrose gradient) from control VA-13 cells and hepatocytes from control rats
row,Protein,stoichiometry N
1,"Rab6a GTPase (natural protein, UniProt P20340 1-208, looked up, Rab6a GTPase, endogenous in VA-13 cells (HepG2 cells expressing ADH); source: endogenous, VA-13 cells (lysate, Golgi fraction, fixed cells)) MSTGGDFGNPLRKFKLVFLGEQSVGKTSLITRFMYDSFDNTYQATIGIDFLSKTMYLEDRTVRLQLWDTAGQERFRSLIPSYIRDSTVAVVVYDITNVNSFQQTTKWIDDVRTERGSDVIIMLVGNKTDLADKRQVSIEEGERKAKELNVMFIETSAKAGYNVKQLFRRVAAALPGMESTQDRSREDMIDIKLEKPQEQPVSEGGCSC",2
2,"Rab6a GTPase (rat hepatocytes) (natural protein, rat (endogenous in primary hepatocytes), UniProt Q9WVB1 1-208, looked up, Rab6a, endogenous in hepatocytes of male Wistar rats; source: endogenous, primary rat hepatocytes (fixed cells, Golgi fraction)) MSAGGDFGNPLRKFKLVFLGEQSVGKTSLITRFMYDSFDNTYQATIGIDFLSKTMYLEDRTVRLQLWDTAGQERFRSLIPSYIRDSTVAVVVYDITNVNSFQQTTKWIDDVRTERGSDVIIMLVGNKTDLADKRQVSIEEGERKAKELNVMFIETSAKAGYNVKQLFRRVAAALPGMESTQDRSREDMIDIKLEKPQEQPVNEGGCSC",2

# — PMC4989220, “The role of Rab6a and phosphorylation of non-muscle myosin IIA tailpiece in alcohol-induced Golgi disorganization” (Scientific Reports, 2016)
